# Patent publication US6294648A, “Protein having proteinase inhibitor activity” (Bayer Corporation, priority 1999, dated 2001)
# “Also recorded” adds a separate entry of the source. Read-outs that look alike come from different tables or passages of the source.
# Legend:
# plasma kallikrein = plasma kallikrein (Homo sapiens, UniProt P03952); conditions: cited from earlier work
# cathepsin G = biological target: T1, cathepsin G (Homo sapiens, UniProt P08311); conditions: cited from earlier work
# T1 sequence (P08311 21-255): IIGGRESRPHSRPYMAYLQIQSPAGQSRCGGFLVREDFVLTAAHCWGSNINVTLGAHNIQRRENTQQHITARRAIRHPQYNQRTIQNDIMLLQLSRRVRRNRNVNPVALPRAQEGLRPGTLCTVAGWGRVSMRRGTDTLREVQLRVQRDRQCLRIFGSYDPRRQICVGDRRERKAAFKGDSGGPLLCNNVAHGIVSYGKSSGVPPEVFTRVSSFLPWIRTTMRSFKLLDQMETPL
# proteinase 3 = biological target: T2, proteinase 3 (Homo sapiens, UniProt P24158); conditions: cited from earlier work
# T2 sequence (P24158 28-256): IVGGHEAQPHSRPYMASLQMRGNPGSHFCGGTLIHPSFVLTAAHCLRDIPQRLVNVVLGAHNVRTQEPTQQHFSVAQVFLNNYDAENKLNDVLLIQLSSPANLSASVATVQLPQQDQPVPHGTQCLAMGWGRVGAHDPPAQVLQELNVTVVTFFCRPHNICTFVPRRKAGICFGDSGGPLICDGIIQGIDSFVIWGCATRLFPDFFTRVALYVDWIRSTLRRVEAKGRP
# [1] = tested on: neutrophil-induced ECM solubilization; conditions: cited from earlier work
# [2] = biological target: T3, human neutrophil elastase (Homo sapiens, UniProt P08246); assay: Determination of equilibrium dissociation constants, neutrophil elastase; format: biochemical
# T3 construct: purchased Athens Research and Technology, Inc. (Athens, Ga.)
# T3 sequence (P08246 30-267): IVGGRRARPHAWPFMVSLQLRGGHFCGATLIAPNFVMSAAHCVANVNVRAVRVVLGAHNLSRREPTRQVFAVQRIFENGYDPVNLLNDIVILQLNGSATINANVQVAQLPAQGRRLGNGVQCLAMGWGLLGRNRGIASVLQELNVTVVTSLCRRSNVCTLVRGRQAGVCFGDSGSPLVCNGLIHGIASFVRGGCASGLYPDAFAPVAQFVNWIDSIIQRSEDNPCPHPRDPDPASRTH
# Description: (§1) The BTL.009 concentration was determined by amino acid analysis. The concentration of human neutrophil elastase, cathepsin G, and proteinase 3 were based on the manufacturer's specifications. […] Hydrolysis of AMC-conjugated peptides was monitored on a Hitachi model F4500 fluorometer (excitation=370 nm, emission=432 nm) over the first 2 minutes of the reaction. Ki* values were determined from plots of fractional rate versus inhibitor concentration, which were fit by nonlinear regression analysis (Enzifitter™ by Bio soft, Cambridge UK) as described (44). Ki values were obtained by correction for the effect of substrate as described (44).
# [3] = biological target: T4, human neutrophil cathepsin G (Homo sapiens, UniProt P08311); assay: Determination of equilibrium dissociation constants, cathepsin G; format: biochemical
# T4 construct: purchased Athens Research and Technology, Inc. (Athens, Ga.)
# T4 sequence (P08311 21-255): T1 sequence (P08311 21-255)
# Description: as §1
# [4] = biological target: T5, human neutrophil proteinase 3 (Homo sapiens, UniProt P24158); assay: Determination of equilibrium dissociation constants, proteinase 3; format: biochemical
# T5 construct: purchased Athens Research and Technology, Inc. (Athens, Ga.)
# T5 sequence (P24158 28-256): T2 sequence (P24158 28-256)
# Description: as §1
# Bovine chymotrypsin = biological target: T6, Bovine chymotrypsin (Bos taurus, UniProt P00766); assay: Chymotrypsin assay to monitor protein folding; format: biochemical
# T6 construct: purchased Sigma (St. Louis, Mo.)
# Description: To identify the properly folded form from reverse phase purification, the inhibition of chymotrypsin was measured. Chymotrypsin (20 nM) was incubated with refolded BTL.009 reverse phase fractions (0.04 absorbance units at 280 nm) in 100 μl of 50 MM Hepes (pH 7.5), 0.15 M NaCl, 2.0 mM CaCl2, and 0.01% Triton X-100 (buffer A) at 37° C. After 30 minutes, Suc-AAPF-pNa (100 μM final concentration) was added, after which the residual enzymatic formation of pNa was monitored at 410 nm.
# trypsin [5] = assay: Inhibitory activity of BTL.009 towards trypsin / trypsin-like proteinases; format: biochemical
# chymotrypsin = conditions: cited from earlier work; for Ki: read-out: Ki, chymotrypsin
# leukocyte elastase = biological target: T7, leukocyte elastase (Homo sapiens, UniProt P08246); conditions: cited from earlier work
# T7 sequence (P08246 30-267): T3 sequence (P08246 30-267)
# platelets = conditions: cited from earlier work
# thrombin = thrombin (Homo sapiens, UniProt P00734); conditions: cited from earlier work
# trypsin [6] = biological target: T8, trypsin (Bos taurus, UniProt P00760); conditions: cited from earlier work
# T8 construct: gene PRSS1
# T8 sequence (P00760 24-246): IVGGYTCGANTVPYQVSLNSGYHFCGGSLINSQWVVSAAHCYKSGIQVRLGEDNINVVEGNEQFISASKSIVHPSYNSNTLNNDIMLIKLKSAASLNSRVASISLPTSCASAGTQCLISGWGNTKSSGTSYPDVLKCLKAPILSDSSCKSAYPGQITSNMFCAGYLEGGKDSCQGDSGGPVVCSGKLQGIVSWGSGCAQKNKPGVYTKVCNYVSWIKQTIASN
# [7] = read-out: Ki, leukocyte elastase
# Sequence of plasma kallikrein (P03952 20-638, species assumed): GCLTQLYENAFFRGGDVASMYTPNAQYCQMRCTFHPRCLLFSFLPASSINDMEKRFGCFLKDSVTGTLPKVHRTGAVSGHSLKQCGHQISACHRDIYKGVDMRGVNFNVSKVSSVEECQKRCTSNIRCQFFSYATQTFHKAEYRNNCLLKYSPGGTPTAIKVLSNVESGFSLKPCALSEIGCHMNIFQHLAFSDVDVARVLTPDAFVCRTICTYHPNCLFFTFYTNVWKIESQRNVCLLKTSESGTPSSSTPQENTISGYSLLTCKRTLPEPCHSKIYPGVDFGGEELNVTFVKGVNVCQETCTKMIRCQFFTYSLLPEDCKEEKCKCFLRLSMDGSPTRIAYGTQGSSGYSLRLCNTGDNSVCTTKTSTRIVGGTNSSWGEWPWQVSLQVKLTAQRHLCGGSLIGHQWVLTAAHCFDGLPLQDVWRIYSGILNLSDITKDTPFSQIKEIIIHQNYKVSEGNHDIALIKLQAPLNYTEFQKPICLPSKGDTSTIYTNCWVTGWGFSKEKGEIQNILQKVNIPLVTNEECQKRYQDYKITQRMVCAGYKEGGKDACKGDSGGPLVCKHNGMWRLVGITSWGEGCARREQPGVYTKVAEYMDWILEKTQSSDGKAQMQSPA
substance,measurement,setting,value
"APP KD variant (T11D, P13H, M17A, 118H, S19P and F34Y): phage display / consensus mutant APP KD differing at 6 key residues; plasma kallikrein inhibitor",Ki,plasma kallikrein,~0.015 nM
same,increase in binding affinity to plasma kallikrein compared to wild-type APP KD,plasma kallikrein,"more than 10,000 fold"
Alpha 1-proteinase inhibitor: a serpin family serine proteinase inhibitor; major serum inhibitor of elastase and cathepsin G,"inhibition of cathepsin G, in words",cathepsin G,potent inhibitor
same,"inhibition of cathepsin G, in words",cathepsin G; listed as Alpha-1-proteinase,inhibit
same,"inhibition of proteinase 3, in words",proteinase 3,inhibit
same,inhibition of neutrophil-induced ECM solubilization,[1],completely or nearly completely inhibit
"BTL.009: synthetic, refolded peptide corresponding to the EST-derived human Kunitz domain KQDVCEMPKETGPCLAYFLHWWYDKKDNTCSMFVYGGCQGNNNNFQSKANCLNTC (SEQ ID NO:1)","inhibition of leukocyte elastase, in words",[2],strong inhibitor; also recorded: elastase inhibitor
same,"inhibition of cathepsin G, in words",[3],weak inhibitor
same,"inhibition of proteinase 3, in words",[4],moderate inhibitor
same,preference for chymotrypsin-like over trypsin-like proteases,Bovine chymotrypsin,inhibit preferentially chymotrypsin-like proteases over trypsin-like proteases
same,inhibitory activity towards trypsin compared with neutrophil neutral serine proteinase,trypsin [5],significantly greater inhibitory activity towards a neutral serine proteinase secreted by neutrophils than towards trypsin
same,expected activity towards trypsin-like proteinases,"trypsin [5]; expected, not tested",little activity towards all trypsin-like proteinases
"TFPI: Tissue factor pathway inhibitor, another member of the Kunitz family",Ki,chymotrypsin,0.75 nM
same,Ki,leukocyte elastase; [7],400 nM
same,Ki,cathepsin G,100 to 200 nM
Tannin,"inhibition of leukocyte elastase, in words",leukocyte elastase,specifically inhibits leukocyte elastase in an irreversible manner
Thrombospondin 1: inactivates cathepsin G by binding near the enzyme's active site,"inhibition of cathepsin G, in words",cathepsin G,inactivates cathepsin G
same,cathepsin G-mediated platelet aggregation,platelets,blocked
alpha 1-proteinase inhibitor [Arg358]: alpha 1-proteinase inhibitor P1 variant,"inhibition of leukocyte elastase, in words",leukocyte elastase,not of leukocyte elastase
same,"inhibition of trypsin-like molecules such as thrombin, in words",thrombin,potent inhibitor
alpha-2-macroglobulin: member of the serpin proteinase inhibitor family (as stated),"inhibition of leukocyte elastase, in words",leukocyte elastase,inhibit
same,"inhibition of cathepsin G, in words",cathepsin G,inhibit
same,"inhibition of proteinase 3, in words",proteinase 3,inhibit
aprotinin,Ki,trypsin [6],0.02 nM
same,Ki,chymotrypsin,1.3 nM
same,"inhibition of leukocyte elastase, in words",leukocyte elastase,does not inhibit
"double mutant hPSTI variant: hPSTI with P1 lysine to leucine and P'1 isoleucine to glutamate (DSLGREAKCYNELNGCTLEYDPVCGTDGNTYPNECVLCFENRKRQTSILIQKSGPC; UniProt P00995 24-79, looked up, variant K18L I19E)",Ki,chymotrypsin,0.024 nM
same,Ki,leukocyte elastase; [7],0.037 nM
"elafin: member of the mucous proteinase inhibitor family (AQEPVKGPVSTKPGSCPIILIRCAMLNPPNRCLKDTDCPGIKKCCEGSCGMACFVPQ; Elafin; UniProt P19957 61-117, looked up)",Ki,"leukocyte elastase; read-out: Ki, elastase",0.6 nM
same,"inhibition of cathepsin G, in words",cathepsin G,not
same,"inhibition of proteinase 3, in words",proteinase 3,not proteinase 3
"hPSTI: a member of the Kazal serine proteinase family (DSLGREAKCYNELNGCTKIYDPVCGTDGNTYPNECVLCFENRKRQTSILIQKSGPC; UniProt P00995 24-79, looked up)","inhibition of trypsin, in words",trypsin [6],potent inhibitor
same,"inhibition of chymotrypsin, in words",chymotrypsin,completely inactive
same,"inhibition of leukocyte elastase, in words",leukocyte elastase,completely inactive
"single mutant hPSTI variant: hPSTI with P1 residue lysine substituted with leucine (DSLGREAKCYNELNGCTLIYDPVCGTDGNTYPNECVLCFENRKRQTSILIQKSGPC; UniProt P00995 24-79, looked up, variant K18L)","inhibition of trypsin, in words",trypsin [6],inactive
same,Ki,chymotrypsin,8 nM
same,Ki,leukocyte elastase; [7],0.025 nM
